From patent publication US20250250357A1 (NANJING ZAIMING PHARMACEUTICAL, published 2025)

Experiments:
[1] = target: T1, human MSLN-R3-his protein (human, UniProt Q13421 487-598); assay: ELISA; antibody 0.01 nM
T1 construct: also called hMSLN-R3-his; not shown: His tag

[2] = target: T2, human MSLN protein, endogenously expressed on Hela and OVCAR3 cells (human, UniProt Q13421 296-598); assay: FACS on OVCAR3 cells; antibody 0.032 nM
T2 construct: whole, on cells; also called mesothelin

[3] = target: T2, human MSLN protein, endogenously …; assay: FACS on OVCAR3 cells; antibody 0.00128 nM
[4] = target: T3, human MSLN-R2-his protein (human, UniProt Q13421 391-486); assay: ELISA; antibody 0.001 nM
T3 construct: also called hMSLN-R2-his; not shown: His tag
T3 sequence (Q13421 other isoform, or with tags, fused parts or gaps): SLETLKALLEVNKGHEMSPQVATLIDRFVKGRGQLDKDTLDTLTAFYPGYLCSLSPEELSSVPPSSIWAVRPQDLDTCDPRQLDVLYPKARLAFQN

[5] = target: T1, human MSLN-R3-his protein; assay: ELISA; antibody 0.001 nM
[6] = target: T2, human MSLN protein, endogenously …; assay: FACS on OVCAR3 cells; antibody 0.8 nM
[7] = target: T4, human MSLN-FL-his protein (human, UniProt Q13421 296-580); assay: competitive ELISA; row F1.56.1
T4 construct: made in HEK293E cells, purified on nickel column; also called hMSLN-FL-his; human MSLN full-length protein; not shown: His tag
T4 sequence (Q13421 other isoform, or with tags, fused parts or gaps): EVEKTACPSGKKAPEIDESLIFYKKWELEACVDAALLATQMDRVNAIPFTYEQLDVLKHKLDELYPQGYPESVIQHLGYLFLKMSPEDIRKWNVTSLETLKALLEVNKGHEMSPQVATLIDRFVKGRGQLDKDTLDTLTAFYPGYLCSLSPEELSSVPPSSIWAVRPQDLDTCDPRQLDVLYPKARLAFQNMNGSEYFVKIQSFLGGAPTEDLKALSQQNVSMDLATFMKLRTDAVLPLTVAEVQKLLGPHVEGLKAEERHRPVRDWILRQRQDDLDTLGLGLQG

[8] = target: T2, human MSLN protein, endogenously …; assay: FACS on OVCAR3 cells; antibody 20 nM
[9] = target: T3, human MSLN-R2-his protein; assay: ELISA; antibody 0 nM (blank)
[10] = target: T1, human MSLN-R3-his protein; assay: ELISA; antibody 100 nM
[11] = target: T3, human MSLN-R2-his protein; assay: ELISA; antibody 0.0001 nM
[12] = target: T4, human MSLN-FL-his protein; assay: competitive ELISA; row Tab142 (R1)
Procedure: (§1) In order to identify antigen-binding sites of antibodies, MSLN chimeric antibodies were grouped using competitive ELISA.
(§2) The chimeric antibodies were diluted to 2 μg/mL with PBS and allowed to coat 96-well high-adsorption ELISA plates at 50 μL/well. After the plates were coated at 4° C. overnight, 250 μL of a blocking buffer (PBS containing 2% (w/w) BSA) was added for two hours of blocking at room temperature. 40 μg/mL of the antibodies to be tested were added, and then the human MSLN-FL-His protein with an EC₈₀ concentration corresponding to each of the antibodies to be tested was added for incubation for 2 h. The plates were washed 5 times with PBS, an HRP-labeled anti-His secondary antibody (purchased from Genescript, Cat. No. A00612) was then added for incubation for 1 h, and the plates were washed 5 times again. A TMB substrate was added at 50 μL/well, and after 10 minutes of incubation at room temperature, a stop solution (1.0 M HCl) was added at 50 μL/well. OD₄₅₀ nm values were read using an ELISA plate reader (Insight, purchased from PerkinElmer), and the competition rate between the antibodies was calculated according to the OD₄₅₀ nm values using a formula.

[13] = target: T4, human MSLN-FL-his protein; assay: competitive ELISA; row Tab108 (R3)
Procedure: as §1, §2

[14] = target: T4, human MSLN-FL-his protein; assay: competitive ELISA; row F2.17.3
Procedure: as §1, §2

[15] = target: T4, human MSLN-FL-his protein; assay: competitive ELISA; row F1.2.12
Procedure: as §1, §2

[16] = target: T1, human MSLN-R3-his protein; assay: ELISA; antibody 10 nM
[17] = target: T2, human MSLN protein, endogenously …; assay: FACS on OVCAR3 cells; antibody 0.0064 nM
[18] = target: T4, human MSLN-FL-his protein; assay: competitive ELISA; row F1.35.24
Procedure: as §1, §2

[19] = target: T3, human MSLN-R2-his protein; assay: ELISA; antibody 10 nM
[20] = target: T3, human MSLN-R2-his protein; assay: ELISA; antibody 0.1 nM
[21] = target: T4, human MSLN-FL-his protein; assay: competitive ELISA; row F2.13.3
Procedure: as §1, §2

[22] = target: T4, human MSLN-FL-his protein; assay: competitive ELISA; row F2.16.10
Procedure: as §1, §2

[23] = target: T1, human MSLN-R3-his protein; assay: ELISA; antibody 0.0001 nM
[24] = target: T4, human MSLN-FL-his protein; assay: competitive ELISA; row Tab107 (conformation)
Procedure: as §1, §2

[25] = target: T2, human MSLN protein, endogenously …; assay: FACS on OVCAR3 cells; antibody 100 nM
[26] = target: T3, human MSLN-R2-his protein; assay: ELISA; antibody 0.01 nM
[27] = target: T1, human MSLN-R3-his protein; assay: ELISA; antibody 1 nM
[28] = target: T3, human MSLN-R2-his protein; assay: ELISA; antibody 1 nM
[29] = target: T4, human MSLN-FL-his protein; assay: competitive ELISA; row F2.24.10
Procedure: as §1, §2

[30] = target: T3, human MSLN-R2-his protein; assay: ELISA; antibody 100 nM
[31] = target: T2, human MSLN protein, endogenously …; assay: FACS on OVCAR3 cells; antibody 4 nM
[32] = target: T4, human MSLN-FL-his protein; assay: competitive ELISA; row F2.39.3
Procedure: as §1, §2

T2 sequence (Q13421 other isoform, or with tags, fused parts or gaps): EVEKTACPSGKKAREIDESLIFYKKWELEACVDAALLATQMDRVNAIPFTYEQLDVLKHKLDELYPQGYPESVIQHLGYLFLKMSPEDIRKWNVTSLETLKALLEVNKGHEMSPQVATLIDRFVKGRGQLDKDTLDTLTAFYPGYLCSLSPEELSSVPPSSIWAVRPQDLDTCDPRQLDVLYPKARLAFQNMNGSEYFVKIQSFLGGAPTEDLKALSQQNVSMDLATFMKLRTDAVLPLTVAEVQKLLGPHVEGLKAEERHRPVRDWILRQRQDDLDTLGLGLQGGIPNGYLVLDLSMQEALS
T1 sequence (Q13421 495-606): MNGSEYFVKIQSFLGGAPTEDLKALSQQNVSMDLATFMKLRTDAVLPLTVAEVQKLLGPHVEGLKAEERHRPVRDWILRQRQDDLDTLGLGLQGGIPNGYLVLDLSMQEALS

OD450 nm [1]: 0.04
FACS fluorescence intensity [2]: 111
FACS fluorescence intensity [3]: 76
OD450 nm [4]: 0.05
OD450 nm [5]: 0.05
FACS fluorescence intensity [6]: 619
competition rate [7]: -124%
FACS fluorescence intensity [8]: 2640
OD450 nm [9]: 0.05
OD450 nm [10]: 0.09
OD450 nm [11]: 0.04
competition rate [12]: -6%
competition rate [13]: -80%
competition rate [14]: -86%
competition rate [15]: -41%
OD450 nm [16]: 0.05
FACS fluorescence intensity [17]: 80
competition rate [18]: 8%
OD450 nm [19]: 0.05
OD450 nm [20]: 0.04
competition rate [21]: -203%
competition rate [22]: -104%
OD450 nm [23]: 0.05
competition rate [24]: 94%
FACS fluorescence intensity [25]: 3150
OD450 nm [26]: 0.04
OD450 nm [27]: 0.05
OD450 nm [28]: 0.05
competition rate [29]: -19%
OD450 nm [30]: 0.09
FACS fluorescence intensity [31]: 1520
competition rate [32]: -24%
B1: Tab107 (YP3, hIgG1) (antibody, V domains shown)
VH: QEQLVESGGGLVQPGASLTLTCTASGIDFSRYYMCWVRQAPGKGLEGIACIYIGGSGSTYYASWAKGRFTISKASSTTVTLQMTSLTAADTATYFCARGTNLNYIFRLWGPGTLVTVSS
VL: DVVMTQTPSPVSAAVGGTVTIKCQASQSINNGLAWYQQKPGQPPRLLIYSASNLESGVPSRFKGSGSGTEFTLTISDLECDDAATYYCQCIWDGNSYVNAFGGGTEVVVRT
notes: Control antibody; VH and VL recombined into human IgG1 CH and CL expression vectors; also called YP3 human IgG1 antibody
